Data: article PMC4533164, “Approaching rational epitope vaccine design for hepatitis C virus with meta-server and multivalent scaffolding” (Scientific Reports, 2015)

Tests used:
1VQO_U_ES-ferritin [1] = molecular target: 1VQO_U_ES-ferritin (UniProt Q9ZLI1); test: native gel or EMSA; blue native (BN) PAGE of the purified nanoparticle, Coomassie blue staining
1VQO_U_ES-ferritin [2] = molecular target: T1, 1VQO_U_ES-ferritin (UniProt Q9ZLI1); test: ELISA; HCV antigen coated on 96-well plates overnight at 4 °C; antibody added at a maximum of 2 μg/ml in a 5-fold dilution series, 1 h at RT; detected with peroxidase goat anti-human IgG, read at 450 nm; conditions: both partners purified
T1 construct: ferritin subunit beginning at Asp5; 24 copies on the particle; also called E1 nanoparticle antigen; source: HEK293F, transiently expressed, purified (Ni Sepharose excel, SEC); copies: 24

| Molecule | stoichiometry N (1VQO_U_ES-ferritin [1]) | binding result (1VQO_U_ES-ferritin [2]) |
| --- | --- | --- |
| 1VQO_U_ES-ferritin (from UniProt Q9ZLI1 5-167) | 24 |  |
| human neutralizing antibody IGH526 (antibody, V domains shown, Captured on anti-human Fc biosensors and detected with anti-human IgG, so it carried a human Fc in the assays; also called nAb IGH526) VH: VQLLEQSGAEVKRPGASVKVSCKASGYTFTSYAIHWVRQAPGQRLEWMGWINPGNGNAKYSQRFQGRVIISRDTSATTSYMELSSLTSEDTAVYSCARDRGFDLLTGHYLGLDPWGQGTLVTVSS VL: ELTLTQPASASATPGQRVTISCSGSSSNIGGNTVNWYQHLPGAAPKLLIHNNDLRPSGVPDRFSGSKSGTSASLAVSGLQSEDEADYFCAAWDDGLNGWVFGGGTKLTVL |  | binds |
